In paper PMC11293385 (Genes & Development, 2024):

T1: p50(1–376) homodimer (murine, UniProt P25799 1-376)
T1 sequence (looked up): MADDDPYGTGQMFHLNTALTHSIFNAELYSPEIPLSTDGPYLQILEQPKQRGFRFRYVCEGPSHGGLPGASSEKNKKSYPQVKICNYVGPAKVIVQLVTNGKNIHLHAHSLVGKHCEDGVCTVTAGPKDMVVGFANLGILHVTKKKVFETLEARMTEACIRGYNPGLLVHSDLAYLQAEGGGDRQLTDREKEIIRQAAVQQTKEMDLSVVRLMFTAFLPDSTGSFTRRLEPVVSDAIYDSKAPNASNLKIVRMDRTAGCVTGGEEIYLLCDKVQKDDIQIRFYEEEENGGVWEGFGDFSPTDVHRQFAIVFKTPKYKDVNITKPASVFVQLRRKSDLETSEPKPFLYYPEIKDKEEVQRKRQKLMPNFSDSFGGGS

T2: p50(39–363) homodimer (murine, UniProt P25799 39-363)
T2 sequence (looked up): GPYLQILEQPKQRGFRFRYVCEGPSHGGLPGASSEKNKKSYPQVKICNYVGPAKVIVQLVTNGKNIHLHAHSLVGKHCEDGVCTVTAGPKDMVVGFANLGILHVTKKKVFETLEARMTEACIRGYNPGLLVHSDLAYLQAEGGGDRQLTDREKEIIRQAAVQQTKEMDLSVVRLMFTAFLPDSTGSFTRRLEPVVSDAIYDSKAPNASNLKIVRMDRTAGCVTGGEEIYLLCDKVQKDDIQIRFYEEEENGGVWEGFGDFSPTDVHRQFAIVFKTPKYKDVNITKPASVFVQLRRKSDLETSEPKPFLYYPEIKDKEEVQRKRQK

T3: p50(1–435) homodimer (murine, UniProt P25799 1-435)
T3 sequence (looked up): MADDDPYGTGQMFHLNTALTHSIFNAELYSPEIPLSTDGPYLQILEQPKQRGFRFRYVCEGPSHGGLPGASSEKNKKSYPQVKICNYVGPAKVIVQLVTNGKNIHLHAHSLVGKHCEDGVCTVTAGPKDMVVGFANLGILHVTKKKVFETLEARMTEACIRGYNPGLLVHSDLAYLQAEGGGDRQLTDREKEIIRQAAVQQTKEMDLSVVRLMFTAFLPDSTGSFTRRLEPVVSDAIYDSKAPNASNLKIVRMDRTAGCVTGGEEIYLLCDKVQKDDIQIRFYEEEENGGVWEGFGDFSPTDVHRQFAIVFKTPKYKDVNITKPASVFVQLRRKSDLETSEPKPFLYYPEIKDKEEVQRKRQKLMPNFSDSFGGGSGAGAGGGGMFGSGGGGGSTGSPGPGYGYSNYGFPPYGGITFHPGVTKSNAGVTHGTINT

B1: RelA(191–290)–p50(350–376) chimeric fusion protein (other, murine, UniProt Q04207 191-290, looked up)
chain: TAELKICRVNRNSGSCLGGDEIFLLCDKVQKEDIEVYFTGPGWEARGSFSQADVHRQVAIVFRTPPYADPSLQAPVRVSMQLRRPSDRELSEPMEFQYLPEIKDKEEVQRKRQKLMPNFSDSFGGGS
B2: murine p50 dimerization domain homodimer (residues 245–376) (domain or fragment, UniProt P25799 245-376, looked up)
chain: ASNLKIVRMDRTAGCVTGGEEIYLLCDKVQKDDIQIRFYEEEENGGVWEGFGDFSPTDVHRQFAIVFKTPKYKDVNITKPASVFVQLRRKSDLETSEPKPFLYYPEIKDKEEVQRKRQKLMPNFSDSFGGGS
B3: GST-IκBζ(404–718) (domain or fragment, human, UniProt Q9BYH8 404-718, looked up)
chain: MGNPMNTTQLGKSLFQWQVEQEESKLANISQDQFLSKDADGDTFLHIAVAQGRRALSYVLARKMNALHMLDIKEHNGQSAFQVAVAANQHLIVQDLVNIGAQVNTTDCWGRTPLHVCAEKGHSQVLQAIQKGAVGSNQFVDLEATNYDGLTPLHCAVIAHNAVVHELQRNQQPHSPEVQELLLKNKSLVDTIKCLIQMGAAVEAKDRKSGRTALHLAAEEANLELIRLFLELPSCLSFVNAKAYNGNTALHVAASLQYRLTQLDAVRLLMRKGADPSTRNLENEQPVHLVPDGPVGEQIRRILKGKSIQQRAPPY
B4: His-tagged IκBζ(404–718) (domain or fragment, human, UniProt Q9BYH8 404-718, looked up)
chain: B3 chain
B5: human IL-6 kB DNA probe (dsDNA)
DNA 1: AGATTTATCAAATGTGGGATTTTCCCATGAGTCTCAATATT
DNA 2: AATATTGAGACTCATGGGAAAATCCCACATTTGATAAATCT

Legend:
His-tagged IκBζ(404–718) = biological target: B4; assay: SPR
crystal structure = biological target: the molecule itself; assay: crystal structure
p50(1–376) homodimer = biological target: T1, p50(1–376) homodimer; assay: native gel or EMSA
[1] = biological target: p50(1–376):RelA(1–325) heterodimer (murine, UniProt P25799 1-376; Q04207 1-325); assay: native gel or EMSA
p50(39–363) homodimer = biological target: T2, p50(39–363) homodimer; assay: SPR
p50(1–435) homodimer = biological target: T3, p50(1–435) homodimer; assay: SPR
[2] = biological target: NF-kB p50;GST-IkBzeta ankyrin repeat domain (Mus musculus;Homo sapiens, UniProt P25799;Q9BYH8 1-376;404-718, |); assay: EMSA supershift

Sequence of p50(1–376):RelA(1–325) heterodimer (Q04207 1-325, one chain of several): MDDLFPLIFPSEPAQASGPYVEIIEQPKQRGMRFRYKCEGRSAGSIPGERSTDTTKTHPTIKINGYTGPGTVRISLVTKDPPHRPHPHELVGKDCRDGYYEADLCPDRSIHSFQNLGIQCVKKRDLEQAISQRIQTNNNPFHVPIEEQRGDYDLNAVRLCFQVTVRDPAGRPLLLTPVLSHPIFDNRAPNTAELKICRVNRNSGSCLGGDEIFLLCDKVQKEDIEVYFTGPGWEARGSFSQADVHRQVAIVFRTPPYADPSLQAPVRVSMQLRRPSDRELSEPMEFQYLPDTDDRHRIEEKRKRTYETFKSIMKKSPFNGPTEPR

Binder: B1
Kd (His-tagged IκBζ(404–718)): 0.615 nM

Binder: B2
binding result (crystal structure): binds
Kd (His-tagged IκBζ(404–718)): 0.0912 nM

Binder: B3
binding result (p50(1–376) homodimer): binds
binding result [1]: binds

Binder: B4
binding result (p50(39–363) homodimer): binds
binding result (p50(1–435) homodimer): binds

Binder: B5
binding result [2]: binds
